Holding throughout (assay type): in vivo, mouse
One data set concerns SMN protein. As to the kind of experiment: SMN protein levels by Western blotting in tissues of severe SMA mice. As to the method:
To evaluate the change of FL-SMN2 expression relative to Δ7 SMN2 transcripts, we used real-time quantitative PCR (RT-qPCR) at PD7; the mice were treated with DG9-PMO at PD0. In both doses, DG9-PMO treatment led to a 4- to 30-fold higher FL-SMN2 expression than NT control in both peripheral and CNS tissues (Figure 2A and Supplemental Figure 3A). It also led to a ~5-fold increase in FL-SMN2 expression when compared with unconjugated PMO, MOE, and R6G-PMO treatments in the majority of the tissues (Figure 2A, Supplemental Figure 3A, and Supplemental Figure 1F). […] SMN levels were higher in CNS tissues in the DG9-PMO–treated than MOE-treated mice, though no statistical significance was seen. […] SMN levels were similar in DG9-PMO and MOE in the tissues collected from mice at PD30.
Total protein was extracted from frozen tissues harvested at PD7 or PD30 by using RIPA buffer (MilliporeSigma) with cOmplete, Mini, EDTA-free protease inhibitor cocktail (MilliporeSigma). The protein concentration was quantified using the Pierce BCA Protein Assay Kit (Thermo Fisher Scientific). […] The bands were detected using the Amersham ECL Select Western Blotting Detection Kit (GE Healthcare) and visualized by the ChemiDoc Touch Imaging system (Bio-Rad). […]

A short description of data set [1]: Toxicology: serum markers, urinary KIM-1, liver and kidney histology. As to the method:
To further elucidate the possibility of long-term toxicity, we collected serum from the Hets and AO-treated mice at PD30–PD35. A toxicological evaluation was performed on the levels of alkaline phosphatase (ALP), alanine transaminase (ALT), aspartate aminotransferase (AST), creatine kinase (CK), creatinine, total bilirubin, total protein, albumin, globulin, and gamma-glutamyl transferase (GGT). […] We also performed a qualitative histological analysis of the liver and kidney and found no signs of observable toxicity (Supplemental Figure 9D). We also analyzed levels of urinary kidney injury marker-1 (KIM-1) following DG9-PMO treatment at both 40 and 80 mg/kg.
Blood was collected from the mice around PD30–PD40 (n = 4–10 per group) during the dissection procedure. The blood was left at RT for 30 minutes and centrifuged at 2,000 rcf. The resulting supernatant (serum) was transferred to a new 1.5 mL tube and stored at –20 °C. The serum samples were analyzed by IDEXX BioAnalytics. The evaluation was performed on a standard set of toxicity markers: glucose, total bilirubin, blood urea nitrogen, CK, creatinine, ALP, ALT, AST, GGT, globulin, albumin, and total protein. Urinary KIM-1 analysis was performed from urine collected from mice at PD30. The collected urine was centrifuged at 2,000 rcf at 4°C. […]

The nature of data set [2]: ELISA, PMO uptake in mild SMA model (F0 mice) injected at PD5. The note with it: 40 mg/kg s.c. at PD5, tissues at PD7, ELISA. An excerpt:
To target the motor neurons in the CNS via systemic administration, AOs need to cross the BBB in patients with SMA. For this study, we used a milder SMA model (F0) (Smn^–/– SMN2^+/+) with 4 SMN2 copies obtained from Jackson Laboratory (JAX 005058) that are viable, are fertile, and have shortened, thick tails since severe SMA model mice have a median survival of only 8 days, making it difficult to evaluate the treatment efficacy when the BBB is mature. […] To determine the ability of DG9-PMO to reach the CNS, we subcutaneously injected 40 mg/kg or 80 mg/kg fluorescently tagged DG9-PMO into F0 mice at PD0 or PD5. […] We also performed an ELISA to examine the biodistribution of unconjugated PMO and DG9-PMO at PD7.
ELISA was performed as described previously ([51], [69]). In brief, protein was extracted from frozen tissue sections (~20 μm) using RIPA buffer with cOmplete, Mini, EDTA-free protease inhibitor cocktail. The probes (Integrated DNA Technologies) were designed complementary to the PMO sequence with phosphorothioated backbones at the 5′ and 3′ ends. The 5′ and 3′ ends were labeled with digoxigenin and biotin, respectively. […] Attophos AP Fluorescent Substrate (Promega) was added to the PMO/DG9-PMO probes, and fluorescence was detected at 444 nm excitation and 555 nm emission by using a monochromator SpectraMax M3 plate reader (Molecular Devices).

Structures are written as SMILES.

As to `CC(=O)N[C@@H](Cc1ccc(O)cc1)C(=O)N[C@@H](C)C(=O)N[C@H](CCCNC(=N)N)C(=O)N[C@H](C(=O)N[C@@H](CCCNC(=N)N)C(=O)N[C@@H](CCCNC(=N)N)C(=O)N[C@H](CCCNC(=N)N)C(=O)NCC(=O)N1CCC[C@H]1C(=O)N[C@@H](CCCNC(=N)N)C(=O)NCC(=O)N[C@@H](Cc1ccc(O)cc1)C(=O)N[C@@H](C)C(=O)N[C@H](CCCNC(=N)N)C(=O)N[C@H](C(=O)N[C@@H](CCCNC(=N)N)C(=O)N[C@@H](CCCNC(=N)N)C(=O)N[C@H](CCCNC(=N)N)C(=O)NCC(=O)N1CCC[C@H]1C(=O)N[C@@H](CCCNC(=N)N)C(=O)N[C@H](CCCNC(=N)N)C(=O)N1C[C@@H](COP(=O)(N(C)C)N2C[C@@H](COP(=O)(N(C)C)N3C[C@@H](COP(=O)(N(C)C)N4C[C@@H](COP(=O)(N(C)C)N5C[C@@H](COP(=O)(N(C)C)N6C[C@@H](COP(=O)(N(C)C)N7C[C@@H](COP(=O)(N(C)C)N8C[C@@H](COP(=O)(N(C)C)N9C[C@@H](COP(=O)(N(C)C)N%10C[C@@H](COP(=O)(N(C)C)N%11C[C@@H](COP(=O)(N(C)C)N%12C[C@@H](COP(=O)(N(C)C)N%13C[C@@H](COP(=O)(N(C)C)N%14C[C@@H](COP(=O)(N(C)C)N%15C[C@@H](COP(=O)(N(C)C)N%16C[C@@H](COP(=O)(N(C)C)N%17C[C@@H](COP(=O)(N(C)C)N%18C[C@@H](COP(=O)(N(C)C)N%19CCC(C(N)=O)CC%19)O[C@@H](n%19cc(C)c(=O)[nH]c%19=O)C%18)O[C@@H](n%18ccc(N)nc%18=O)C%17)O[C@@H](n%17cnc%18c(N)ncnc%18%17)C%16)O[C@@H](n%16ccc(N)nc%16=O)C%15)O[C@@H](n%15cc(C)c(=O)[nH]c%15=O)C%14)O[C@@H](n%14cc(C)c(=O)[nH]c%14=O)C%13)O[C@@H](n%13cc(C)c(=O)[nH]c%13=O)C%12)O[C@@H](n%12ccc(N)nc%12=O)C%11)O[C@@H](n%11cnc%12c(N)ncnc%12%11)C%10)O[C@@H](n%10cc(C)c(=O)[nH]c%10=O)C9)O[C@@H](n9cnc%10c(N)ncnc%109)C8)O[C@@H](n8cnc9c(N)ncnc98)C7)O[C@@H](n7cc(C)c(=O)[nH]c7=O)C6)O[C@@H](n6cnc7c(=O)[nH]c(N)nc76)C5)O[C@@H](n5ccc(N)nc5=O)C4)O[C@@H](n4cc(C)c(=O)[nH]c4=O)C3)O[C@@H](n3cnc4c(=O)[nH]c(N)nc43)C2)O[C@@H](n2cnc3c(=O)[nH]c(N)nc32)C1)C(C)C)C(C)C` (some centres unmarked) [DG9-PMO], the “SMN expression at PD30 (Western blotting)” value with SMN protein (40 mg/kg s.c. at PD0, tissues at PD30) is listed as “sustained levels of SMN expression at PD30”. Further, the “SMN protein levels (Western blotting)” value with SMN protein (s.c. at PD0, tissues at PD7, relative to β-tubulin) was “increased SMN protein levels in both the peripheral and CNS tissues”. Also, in data set [1] (40 and 80 mg/kg, urine at PD30, sandwich ELISA), the “urinary kidney injury marker-1 (KIM-1) compared to the Hets” value is “no apparent increase”. Also, in data set [1] (as high as 80 mg/kg dose), the “toxicity on the liver and kidney” value is “no apparent toxicity”. For the same compound, the “uptake of PMO versus unconjugated PMO, mild SMA model (F0)” value in data set [2] is “significantly increased the uptake of PMO in the CNS and peripheral tissues”.

The values above are taken from publication PMC10077475, “DG9-conjugated morpholino rescues phenotype in SMA mice by reaching the CNS via a subcutaneous administration” (JCI Insight, 2023).
